Experimental data taken from paper PMC2603627.

Molecular target: GST-tagged p63RhoGEF (UniProt Q86VW2)
Assay: pull-down

Chain of UniProt Q86VW2 (Q86VW2 whole entry): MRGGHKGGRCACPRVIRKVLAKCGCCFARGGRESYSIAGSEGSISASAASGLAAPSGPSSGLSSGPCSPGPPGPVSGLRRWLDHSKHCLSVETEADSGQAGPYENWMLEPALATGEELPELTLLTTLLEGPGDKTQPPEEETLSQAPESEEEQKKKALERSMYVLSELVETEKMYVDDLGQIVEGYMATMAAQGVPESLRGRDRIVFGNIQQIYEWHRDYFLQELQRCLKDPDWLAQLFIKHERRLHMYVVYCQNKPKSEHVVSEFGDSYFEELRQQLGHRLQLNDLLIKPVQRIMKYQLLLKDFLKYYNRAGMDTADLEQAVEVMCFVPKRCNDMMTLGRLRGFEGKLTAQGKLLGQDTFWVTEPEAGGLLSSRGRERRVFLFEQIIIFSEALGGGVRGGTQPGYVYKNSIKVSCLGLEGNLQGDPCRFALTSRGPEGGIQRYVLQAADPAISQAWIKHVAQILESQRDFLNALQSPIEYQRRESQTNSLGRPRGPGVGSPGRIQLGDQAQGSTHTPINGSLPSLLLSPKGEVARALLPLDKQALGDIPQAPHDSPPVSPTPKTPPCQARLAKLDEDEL

% associated MLK3/input MLK3 after overnight incubation [%] | amount in GST-p63RhoGEF complexes relative to FLAG-MLK3^KR [fold] | Substance
44 | – | FLAG-MLK3^KR (kinase-deficient, ATP-binding point mutant of MLK3) (from UniProt Q16584 1-847) (enzyme)
– | 2 | FLAG-MLK3^KR/T277D,S281D (from UniProt Q16584 1-847) (enzyme)
